Biological target: human transferrin receptor-Fc tag standard (human, UniProt P02786 89-760)
Experiment: ELISA

Chain of human transferrin receptor-Fc tag standard (P02786 89-760): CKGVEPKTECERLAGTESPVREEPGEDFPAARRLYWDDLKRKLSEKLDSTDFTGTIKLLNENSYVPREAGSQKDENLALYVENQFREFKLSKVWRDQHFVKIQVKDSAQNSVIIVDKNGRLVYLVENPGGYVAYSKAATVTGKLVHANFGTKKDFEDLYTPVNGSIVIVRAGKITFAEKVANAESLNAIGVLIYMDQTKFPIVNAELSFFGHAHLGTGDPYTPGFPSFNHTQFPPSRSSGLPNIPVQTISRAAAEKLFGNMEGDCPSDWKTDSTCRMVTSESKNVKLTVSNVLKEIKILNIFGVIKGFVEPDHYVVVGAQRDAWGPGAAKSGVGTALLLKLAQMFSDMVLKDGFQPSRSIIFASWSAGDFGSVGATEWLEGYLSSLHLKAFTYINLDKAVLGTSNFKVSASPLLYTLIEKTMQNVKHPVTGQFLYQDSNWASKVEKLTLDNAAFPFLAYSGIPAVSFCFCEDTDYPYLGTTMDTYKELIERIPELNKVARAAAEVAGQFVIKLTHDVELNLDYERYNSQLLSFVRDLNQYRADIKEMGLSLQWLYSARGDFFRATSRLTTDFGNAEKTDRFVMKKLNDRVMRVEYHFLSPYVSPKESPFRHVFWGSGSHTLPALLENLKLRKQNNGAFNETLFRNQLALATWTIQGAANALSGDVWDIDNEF

B1: huHF_Mutant1-dual (designed binder)
chain: MTTASTSQVRQNYHAASEAAINAQINLELYASYVYLSMSYYFDRDDVALKNFAKYFLHQSHEEREHAEKLMKLQNQRGGRIALADIQKPDCDDGGSYGSLYAFDIWESGLNAMECALHLEKNVNQSLLELHKLATDKNDPHLCDFIETHYLNEQVKAIKELGDHVTNLRKMGAPESGLAEYLFDKHTLGDSDNESMPSFITLASLSTWEGYFDF
For B1, the Kd was 182 nM.

Reference: patent US20240218030A1 (published 2024)
